T1: La WT (LARP3) (Homo sapiens, UniProt P05455 1-408)
T1 sequence: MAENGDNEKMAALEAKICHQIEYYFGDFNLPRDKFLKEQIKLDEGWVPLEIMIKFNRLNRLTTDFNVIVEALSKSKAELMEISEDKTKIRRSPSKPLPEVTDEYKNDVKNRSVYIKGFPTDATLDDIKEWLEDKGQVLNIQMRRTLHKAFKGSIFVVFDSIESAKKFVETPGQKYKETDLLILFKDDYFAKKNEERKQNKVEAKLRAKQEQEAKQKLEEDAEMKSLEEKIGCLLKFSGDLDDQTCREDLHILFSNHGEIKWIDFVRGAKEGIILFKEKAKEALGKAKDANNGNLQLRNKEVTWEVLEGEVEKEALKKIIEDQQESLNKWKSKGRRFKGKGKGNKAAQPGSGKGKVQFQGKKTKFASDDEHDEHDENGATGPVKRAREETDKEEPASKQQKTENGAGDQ

T2: LaΔ1 (LAM deleted) (Homo sapiens, UniProt P05455 1-408, del11-99)
T2 sequence: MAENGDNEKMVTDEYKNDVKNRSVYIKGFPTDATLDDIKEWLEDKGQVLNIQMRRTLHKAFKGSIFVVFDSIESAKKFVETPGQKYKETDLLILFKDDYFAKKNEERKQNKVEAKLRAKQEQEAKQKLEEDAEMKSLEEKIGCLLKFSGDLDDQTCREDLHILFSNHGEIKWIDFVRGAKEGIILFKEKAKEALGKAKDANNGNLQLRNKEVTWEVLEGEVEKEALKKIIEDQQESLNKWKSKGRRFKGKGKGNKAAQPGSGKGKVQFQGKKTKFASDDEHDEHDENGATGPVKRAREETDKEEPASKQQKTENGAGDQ

T3: LaΔRCD (Homo sapiens, UniProt P05455 1-408, R334G;R335G;F336V;K337G;G338G;K339G;F357V;K360G;K361G;T362T;K363G;F364V)
T3 sequence: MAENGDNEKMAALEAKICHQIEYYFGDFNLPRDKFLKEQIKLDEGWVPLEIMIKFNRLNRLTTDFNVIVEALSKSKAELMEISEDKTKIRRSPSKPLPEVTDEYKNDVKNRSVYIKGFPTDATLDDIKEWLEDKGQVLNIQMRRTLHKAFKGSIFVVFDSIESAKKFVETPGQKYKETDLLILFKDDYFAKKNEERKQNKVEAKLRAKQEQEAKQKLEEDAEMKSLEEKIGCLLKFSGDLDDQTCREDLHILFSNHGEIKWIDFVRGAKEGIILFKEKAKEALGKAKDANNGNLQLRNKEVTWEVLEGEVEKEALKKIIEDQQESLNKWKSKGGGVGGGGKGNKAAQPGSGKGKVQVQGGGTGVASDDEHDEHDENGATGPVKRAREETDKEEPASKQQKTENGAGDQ

T4: La-Δlinker (Homo sapiens, UniProt P05455 1-408, del170-230)
T4 sequence: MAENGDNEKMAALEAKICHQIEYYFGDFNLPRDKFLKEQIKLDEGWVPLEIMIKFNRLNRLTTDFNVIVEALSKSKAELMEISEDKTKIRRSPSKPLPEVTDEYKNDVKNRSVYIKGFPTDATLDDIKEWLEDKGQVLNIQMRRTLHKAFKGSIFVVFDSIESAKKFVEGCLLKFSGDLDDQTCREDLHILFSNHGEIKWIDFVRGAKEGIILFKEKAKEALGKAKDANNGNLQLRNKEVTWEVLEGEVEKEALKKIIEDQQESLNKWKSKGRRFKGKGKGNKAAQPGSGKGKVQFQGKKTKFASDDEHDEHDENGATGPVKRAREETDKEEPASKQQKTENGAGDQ


What was measured:
La WT (LARP3) [1] = target: T1, La WT (LARP3); assay: competition; vs labeled D1-AUG; 20 mM Tris/HCl pH 8.0, 150 mM NaCl, 1.5 mM MgCl2, 0.5 mM EDTA, 0.5% NP-40 (FP: IGEPAL CA-630, 100 ug/ml bovine gamma globulin), 10 nM RNA, room temperature; conditions: protein: recombinant; tags: His
LaΔ1 (LAM deleted) = target: T2, LaΔ1 (LAM deleted); assay: EMSA; affinity similar to WT; two complexes; 20 mM Tris/HCl pH 8.0, 150 mM NaCl, 1.5 mM MgCl2, 0.5 mM EDTA, 0.5% NP-40 (FP: IGEPAL CA-630, 100 ug/ml bovine gamma globulin), 10 nM RNA, room temperature; conditions: protein: recombinant; tags: His; label: 32P (EMSA) or 5'-FAM (FP); hairpin (predicted)
LaΔRCD = target: T3, LaΔRCD; assay: EMSA; similar to WT; two complexes at high La; 20 mM Tris/HCl pH 8.0, 150 mM NaCl, 1.5 mM MgCl2, 0.5 mM EDTA, 0.5% NP-40 (FP: IGEPAL CA-630, 100 ug/ml bovine gamma globulin), 10 nM RNA, room temperature; conditions: protein: recombinant; tags: His; label: 32P (EMSA) or 5'-FAM (FP); hairpin (predicted)
La WT (LARP3) [2] = target: T1, La WT (LARP3); assay: fluorescence polarization; 5'-FAM RNA; 20 mM Tris/HCl pH 8.0, 150 mM NaCl, 1.5 mM MgCl2, 0.5 mM EDTA, 0.5% NP-40 (FP: IGEPAL CA-630, 100 ug/ml bovine gamma globulin), 10 nM RNA, room temperature; conditions: protein: recombinant; tags: His; label: 32P (EMSA) or 5'-FAM (FP); hairpin (predicted)
La-Δlinker = target: T4, La-Δlinker; assay: EMSA; 20 mM Tris/HCl pH 8.0, 150 mM NaCl, 1.5 mM MgCl2, 0.5 mM EDTA, 0.5% NP-40 (FP: IGEPAL CA-630, 100 ug/ml bovine gamma globulin), 10 nM RNA, room temperature; conditions: protein: recombinant; tags: His; label: 32P (EMSA) or 5'-FAM (FP); hairpin (predicted)
La WT (LARP3) [3] = target: T1, La WT (LARP3); assay: as above; conditions: protein: recombinant; tags: His; label: 32P (EMSA) or 5'-FAM (FP); hairpin (predicted)

Binder | binding result (La WT (LARP3) [1]) | binding result (LaΔ1 (LAM deleted)) | binding result (LaΔRCD) | Kd (La WT (LARP3) [2]) | binding result (La-Δlinker) | Kd (La WT (LARP3) [3])
CAGGAAGAGCCCCAGCCAGGGAACACCAGCUCCUG (ssRNA) [D1-mu2] | binds | – | – | – | – | –
CAGGAAGAGCCCCACAGAUGCACCACCAGCUCCUG (ssRNA) [D1-mu3] | no binding | – | – | – | – | –
GCUGCCCAGGAAGAGCCCCAGCCAUGGAACACCAGCUCCUGUGCUGC (structured_RNA) [D1-AUG] | – | binds | binds | 76 nM | no binding | 80.3 nM

Source: article PMC4288197, “Novel RNA chaperone domain of RNA-binding protein La is regulated by AKT phosphorylation”
